Laboratory results published in publication PMC9940634.

Target: T1, HIC2 ZF2-5 (Homo sapiens, UniProt Q96JB3 503-615)
T1 sequence: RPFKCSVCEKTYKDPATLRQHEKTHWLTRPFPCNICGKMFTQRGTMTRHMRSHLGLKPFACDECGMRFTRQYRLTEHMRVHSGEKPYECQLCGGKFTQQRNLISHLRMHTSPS
Assay: X-ray crystallography

B1: +55 enhancer HIC2 motif-2/GATA 16-mer (dsDNA)
DNA 1: AGATAATGCCAACAGT
DNA 2: ACTGTTGGCATTATCT
binding result: binds
